Measurements published in the supplement of paper PMC7125110.
± gives the standard error. For some of these results: Variants at the floor of the assay were thinned out.

B1: glmS ribozyme (parent)
chain: AUAAAAGCGCCAGAACUACAGAAAUGUAGUUGACGAGGAGGAGGUUUAUCGAAUUUUCGGCGGAUGCCUCCAAA

Assays:
Conditions in all cases: with glucosamine-6-phosphate
glucosamine-6-phosphate [1] = variants of: B1; assay: kcat; higher = faster cleavage; RNA array
How it was run: (§1)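 Ribozyme variants carrying barcodes were transcribed in situ on sequenced MiSeq chips by E. coli RNA polymerase and tracked at 37 °C with a hybridised Cy3 probe. They were exposed to 40 μM to 10 mM glucosamine-6-phosphate in HEPES/KCl/Mg(OAc)2 buffer. kobs came from exponential decay fits of normalised per-tile medians, and kcat and KM from weighted Michaelis–Menten fits.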

glucosamine-6-phosphate [2] = variants of: B1; assay: KM; higher = weaker cofactor use; RNA array
How it was run: as §1

glucosamine-6-phosphate [3] = variants of: B1; assay: self-cleavage kobs at 40 uM GlcN6P; higher = faster cleavage; RNA array
How it was run: as §1

glucosamine-6-phosphate [4] = variants of: B1; assay: self-cleavage kobs at 160 uM GlcN6P; higher = faster cleavage; RNA array
How it was run: as §1

glucosamine-6-phosphate [5] = variants of: B1; assay: self-cleavage kobs at 640 uM GlcN6P; higher = faster cleavage; RNA array
How it was run: as §1

glucosamine-6-phosphate [6] = variants of: B1; assay: self-cleavage kobs at 2500 uM GlcN6P; higher = faster cleavage; RNA array
How it was run: as §1

glucosamine-6-phosphate [7] = variants of: B1; assay: self-cleavage kobs at 10000 uM GlcN6P; higher = faster cleavage; RNA array
How it was run: as §1

Variant | kcat (glucosamine-6-phosphate [1]) [s⁻¹] | KM (glucosamine-6-phosphate [2]) [µM] | self-cleavage kobs at 40 uM GlcN6P (glucosamine-6-phosphate [3]) [s⁻¹] | self-cleavage kobs at 160 uM GlcN6P (glucosamine-6-phosphate [4]) [s⁻¹] | self-cleavage kobs at 640 uM GlcN6P (glucosamine-6-phosphate [5]) [s⁻¹] | self-cleavage kobs at 2500 uM GlcN6P (glucosamine-6-phosphate [6]) [s⁻¹] | self-cleavage kobs at 10000 uM GlcN6P (glucosamine-6-phosphate [7]) [s⁻¹]
AUAAAAGCGCCAGAACUACAGAAAUGUAGUUGACGAGGAGGAGGUUUAUCGAAUUUUCGGCAGAUGCCUCGAAA | 1.44e-05 ± 2.8e-06 | – | – | – | – | – | –
AUAAAAGCGCCAGAAUUACAGAAAUGUAGUUGACGAGGACGAGGUUUAUCGAAUUUUCGGCGGAUGCCUCCAAA | 0.00242 ± 0.00035 | 1020 ± 220 | 0.00011 ± 1.1e-05 | 0.000291 ± 3.7e-05 | 0.000837 ± 8.6e-05 | 0.00184 ± 0.00021 | 0.00227 ± 0.00027
AUAAAAGCGCCAGAGCUACAGAAAUGUAGUUGACGAGGAGGAGGUUUAUCGAAUUUUCGGCGGUUGCCUCCAAA | 0.000233 ± 2.7e-05 | 3870 ± 820 | – | – | 3.22e-05 ± 9e-06 | 9.11e-05 ± 1.2e-05 | 0.000169 ± 2.4e-05
AUAAAAGCGCCAGAAGUACAGAAAUGUAGUUGACGAGGAGGAGGUUUAUCGAAUUUUCGGCGGAUGCCUCCAAA | 0.0106 ± 0.0035 | 2880 ± 1100 | 0.000174 ± 3.5e-06 | 0.000423 ± 1.5e-05 | 0.00182 ± 8.5e-05 | 0.01 ± 0.0036 | 0.0085 ± 0.0003
AUAAAAGCGCCAGAACUACAGAAAUGUAGUUGACGAGGAGGAGGUUUAUCGAAUUUUCGGCUGAUGCUUCCAAA | 1.22e-05 ± 1.2e-06 | – | – | – | < 1e-05 | – | –
AUAAAAGCGCCAGAACUACAGAAAUGUAGUUGACGAAGAGGAGGUUUAUCGAUUUUUCGGCGGAUGCCUCCAAA | 0.00237 ± 0.00046 | 3520 ± 930 | 4.73e-05 ± 1.1e-05 | 9.91e-05 ± 1.2e-05 | 0.000367 ± 3.5e-05 | 0.000924 ± 0.0001 | 0.00185 ± 0.00023
AUAAAAGCGCCAGAACUACAGAAAUGUAGUUGACGAGGAGGAGGUUUAUUGAAUUUUCGGCGGAUGCAUCUAAA | 2.67e-05 ± 9.8e-06 | – | – | – | – | – | –
AUAAAAGCGCCAGAACUACAGAAAUGUAGUUGACGAGGAGGAGGUUUAGCGAAUUUUCGGCGGAUGCCUCAAAA | 0.000155 ± 8.2e-06 | 1460 ± 260 | – | – | 5.22e-05 ± 1.8e-05 | 8.83e-05 ± 2.5e-05 | 0.000137 ± 1.9e-05
AUAAAAGCGCCAGAAUUACAGAAAUGUAGUUGACGAGGAGGUGGUUUAUCGAAUUUUCGGCGGAUGCCUCCAAA | 0.000129 ± 1e-05 | 903 ± 300 | – | – | 4.79e-05 ± 1.9e-05 | 0.000107 ± 2.2e-05 | 0.000115 ± 1.7e-05
AUAAAAGCGCCUGAACUACAGAAAUGUAGUUAACGAGGAGGAGGUUUAUCGAAUUUUCGGCGGAUGCCUCCAAA | 0.000902 ± 5.6e-05 | 2110 ± 200 | – | 6.52e-05 ± 9.5e-06 | 0.000203 ± 2.1e-05 | 0.000498 ± 5.1e-05 | 0.000735 ± 0.00013
AUAAAAGCGCUAGAACUACAGAAAUGUAGUUGACGAGAAGGAGGUUUAUCGAAUUUUCGGCGGAUGCCUCCAAA | < 1e-05 | – | < 1e-05 | < 1e-05 | – | – | < 1e-05
AUAAAAGCGCCCGAACUACAGAAAUGUAGUUGACGAGGAGGAGGUUUAUCGAAUUUUCGGCGGAUGCCGCCAAA | 6.77e-05 ± 5.2e-06 | – | – | 5.5e-05 ± 1.2e-05 | 6.7e-05 ± 8.9e-06 | 7.6e-05 ± 9.1e-06 | 5.86e-05 ± 7.7e-06
AUAAAAGCGCCAGAACUACAGAAAUGUAGUUCACGAGGAGGAGGUUUAUCGGAUUUUCGGCGGAUGCCUCCAAA | 1.94e-05 ± 5.2e-06 | – | – | – | – | – | –
AUAAAAGCGCUAGAACUACAGAAAUGUAGUUGACGAGGAGGAGGUUUAUCGAAUUUUCGGCGGAUGCCUACAAA | 5.41e-05 ± 1e-05 | – | – | – | 8.46e-05 ± 1.3e-05 | 5.81e-05 ± 9.9e-06 | 4.63e-05 ± 6.2e-06
AUAAAAGCGCCAGAACUACAGAAAUGUAGUUGACGAGGAGAAGGUUUAUCGAAUUUUCGGCGGAUGCCUCAAAA | 0.000272 ± 3.8e-05 | 645 ± 210 | 2.7e-05 ± 8.9e-06 | 5.23e-05 ± 1.1e-05 | 0.000125 ± 1.7e-05 | 0.000308 ± 5.6e-05 | 0.000248 ± 2.8e-05
AUAAAAGCGCCAGAACUACAGAAAUGUAGUGGACGAGGAGGAGGUUUAUCGAUUUUUCGGCGGAUGCCUCCAAA | 0.019 ± 0.0084 | – | 0.000188 ± 3e-05 | – | 0.00281 ± 0.00087 | 0.00587 ± 0.002 | 0.0128 ± 0.0024
AUAAAAGCGCCAGAACUACAGAAAUGUAGUUAACGAGGAGGAGGUUUAUCGAAUAUUCGGCGGAUGCCUCCAAA | 0.00351 ± 0.00053 | 3540 ± 690 | 5.08e-05 ± 9.5e-06 | 0.00014 ± 1.7e-05 | 0.000541 ± 5.3e-05 | 0.00144 ± 0.00022 | 0.00261 ± 0.00038
